Assay results from article PMC12482648, “G-quadruplex structural motifs modulate protein–RNA interactions within the transcriptome”.

Tests used:
[1] = target: T1, FUS C-terminal RNA-binding module (His6-FUS) (UniProt P35637 269-526); assay: EMSA; 150 mM KCl; EMSA: 1 uM RNA, 0/0.1/1/5 uM His6-FUS, 50 mM HEPES-KOH (or HEPES-LiOH) pH 7.4, 150 mM KCl (or LiCl), 200 ng BSA, 2 mM EDTA, 2 mM DTT, 5% glycerol, 30 min 30 C; details: protein: recombinant; tags: His6 (pET28a-TEV); label: none (SYBR Gold stain); none (non-G4)
[2] = target: T1, FUS C-terminal RNA-binding module …; assay: EMSA; 150 mM KCl; supershift with anti-His; EMSA: 1 uM RNA, 0/0.1/1/5 uM His6-FUS, 50 mM HEPES-KOH (or HEPES-LiOH) pH 7.4, 150 mM KCl (or LiCl), 200 ng BSA, 2 mM EDTA, 2 mM DTT, 5% glycerol, 30 min 30 C; details: protein: recombinant, tags: His6 (pET28a-TEV), label: none (SYBR Gold stain)

T1 sequence (P35637 269-526): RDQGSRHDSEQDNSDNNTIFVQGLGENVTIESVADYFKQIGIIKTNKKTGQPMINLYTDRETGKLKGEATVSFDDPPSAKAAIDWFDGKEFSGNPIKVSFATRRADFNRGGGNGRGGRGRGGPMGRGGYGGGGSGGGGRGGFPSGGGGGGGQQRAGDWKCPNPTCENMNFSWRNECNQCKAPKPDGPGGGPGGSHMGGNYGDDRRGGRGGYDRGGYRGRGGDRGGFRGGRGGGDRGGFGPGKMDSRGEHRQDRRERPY

| Binder | binding result [1] | binding result ([2]; intramolecular G4 (in K+)) | further results |
| --- | --- | --- | --- |
| UGUUGCGCGUGUCCCGUGGAGUGGA (ssRNA) [25COPS9 mutant] | no binding | – | – |
| UGGUGCGCGGGUCCCGGGGAGGGGA (structured_RNA) [25COPS9 WT] | – | – | binding result ([2]; G4 (in K+)): binds |
| UUAGGGUUAGGGUUAGGGUUAGGG (structured_RNA) [TERRA WT] | – | binds | – |
| AGGGGGAGGGUGUGGGGGCAGUGAGGGU (structured_RNA) [28RPL23A WT] | – | binds | – |
| AGUGUGAGUGUGUGUGUGCAGUGAGUGU (ssRNA) [28RPL23A mutant] | no binding | – | – |
